Test [1] addresses T1, recombinant human TIGIT extracellular domain (ECD) (human, UniProt Q495A1 22-138).
T1 construct: also called h-TIGIT ECD; recombinant human TIGIT ECD
T1 sequence: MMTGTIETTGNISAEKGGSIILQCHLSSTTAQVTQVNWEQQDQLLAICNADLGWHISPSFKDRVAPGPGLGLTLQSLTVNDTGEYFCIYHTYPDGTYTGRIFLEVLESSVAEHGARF
Put plainly: blocking ELISA, competitor PVR. The method, then:
The effects of VHH antibody clones on blocking Poliovirus Receptor (PVR, a.k.a. CD155) binding to TIGIT were also determined using blocking ELISA assay.
(In general: In an ELISA, binding on a coated surface is turned into a signal by an enzyme label.)

The target in test [2] is T2, recombinant ECD of human FcγRIIB (human, UniProt P31994 43-217).
T2 construct: extracellular domain
T2 sequence (looked up): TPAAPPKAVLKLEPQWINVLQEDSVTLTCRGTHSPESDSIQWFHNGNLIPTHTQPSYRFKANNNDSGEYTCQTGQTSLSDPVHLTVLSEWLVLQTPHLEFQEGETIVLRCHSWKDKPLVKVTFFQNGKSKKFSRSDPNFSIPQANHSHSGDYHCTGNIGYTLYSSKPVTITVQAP
Put plainly: Octet (ForteBio), receptor ECD loaded on the sensor, antibody at 5 concentrations (not given) [h-FcγRIIB binding]. An excerpt:
(§1) FIG. 12 depicts binding of 2A3-LT-Fc wild type (wt) and Fc mutations (DLE and VLPLL) to human FcγRIIIA, human FcγRIIB and mouse FcγRIV determined using Octet binding assay. Sensors were loaded with recombinant proteins of ECDs of FcγRIIIA, human FcγRIIB and mouse FcγRIV, association and dissociation of 2A3-LT-Fc wt, DLE or VLPLL mutants at 5 different concentrations were detected using ForteBio. Y axis represents association, dissociation & Rmax. X axis represents time in second. Both DLE and VLPLL mutants had enhanced binding affinity to human FcγRIIIA compared to that of wild type, DLE mutant also had enhanced binding affinity to human FcγRIIB, however VLPLL mutant reduced binding affinity to human FcγRIIB All versions had similar affinity to mouse FcγRIV.
(BLI is a label-free optical method that tracks binding on a fibre tip over time.)

Test [3] addresses T3, recombinant ECD of mouse FcγRIV (mouse, UniProt A0A0B4J1G0 21-203).
T3 sequence: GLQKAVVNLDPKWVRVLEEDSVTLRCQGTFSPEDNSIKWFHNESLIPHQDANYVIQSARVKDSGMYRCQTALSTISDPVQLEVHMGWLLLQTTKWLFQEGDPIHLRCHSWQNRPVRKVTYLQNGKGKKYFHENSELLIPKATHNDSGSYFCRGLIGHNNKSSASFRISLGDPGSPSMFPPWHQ
Put plainly: Octet (ForteBio), receptor ECD loaded on the sensor, antibody at 5 concentrations (not given) [m- FcγRIV binding].
From the text: as §1

Test [4] deals with T4, human TIGIT expressed on cells (stably transfected Jurkat cells) (human, UniProt Q495A1 22-244).
T4 construct: Also used here for TIGIT on primary T cells in the MLR; also called h-TIGIT; T cell immunoreceptor with Ig and ITIM domains
T4 sequence: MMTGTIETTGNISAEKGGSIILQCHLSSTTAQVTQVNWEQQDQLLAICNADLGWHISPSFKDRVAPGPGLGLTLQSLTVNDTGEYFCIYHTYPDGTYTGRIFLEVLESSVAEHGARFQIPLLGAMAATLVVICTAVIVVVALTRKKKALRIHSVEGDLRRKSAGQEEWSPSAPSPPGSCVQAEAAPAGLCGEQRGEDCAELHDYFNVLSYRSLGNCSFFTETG
Put plainly: flow cytometry on h-TIGIT transfected Jurkat cells, anti-human IgG Fc Alexa Fluor 488. An excerpt:
FIGS. 1A-1C depict whole cell binding of representative VHH bivalent antibodies to human TIGIT determined by flowcytometry assays. […] Y axis represents Mean Fluorescence Intensity of AlexaFlour 488. X axis represents antibody concentrations in nanomolar. 2B7, 1G1, 1C12, 3G6, 2B10, 3G7, 3G10, 13H11, and 15A5 are VHH clones of anti-human TIGIT. FIG. 1C is a schematic of the structure of a TIGIT VHH bivalent antibody.
Binding affinities of the bivalent clones to human TIGIT transfected Jurkat cells were confirmed by flowcytometry assays. Jurkat cells stably expressing human TIGIT and NFAT reporter gene were established. Specifically, Jurkat cells were transfected with human TIGIT expression vector by electroporation, and cells stably expressing human TIGIT were selected by 1 μg/ml puromycin during cell culture. Representative antibody clones were incubated at different concentrations with h-TIGIT stably expressing Jurkat cells (0.2×10^6/ml) in 100 μl/well in 96-well plate in FACS buffer (PBS with 1.5% FBS) for 30 min. After washing, Alexaflour 488 conjugated anti-human IgG Fc secondary antibody (Alexa Fluor® 488 AffiniPure Goat Anti-Human IgG, Fcγ fragment specific, Jackson labs, 1:500 dilution) was added and incubated for 30 min. After washing, mean fluorescence intensity was measured using CytoFlex (Beckman Coulter) by gating live cell population. Binding affinity was calculated using GraphPad Prism.

In test [5] the target is T4, human TIGIT expressed on cells (stably …). Put plainly: flow cytometry on h-TIGIT Jurkat cells (% binding) with VHH samples heated for 60 min at 25 to 70 °C. Here is the method:
(§2) FIGS. 6A and 6B depict thermostability tested for representative clones. The VHH antibody samples were heated from 25 to 70° C. for 60 min. Binding of heated samples to human TIGIT was examined using ELISA or whole cell binding. […] Y axis represents OD450 obtained from the ELISA assay. X axis represents temperature for the treatment. […] Y axis represents percentage of binding to h-TIGIT. X axis represents temperature for the treatment.
(§3) The thermostability of 12 representative clones was tested by heat treatment at 25 to 70° C. for 60 min, then the binding of the treated samples to human TIGIT was examined using ELISA and whole cell binding flow cytometry assays, the results of which are shown in FIGS. 6A and 6B. […] Bivalent 2A3 antibody (2A3-Fc) was constructed using human IgG1 CH2 and CH3 domains. The antibody was expressed in ExpiCHO cells and purified by protein A column. Epitope of 2A3-Fc binding to human TIGIT was studied using Octet binding assay in comparison with anti-TIGIT reference antibodies Reference Ab 1 and References Ab 2 (a reference anti-human-TIGIT antibody having the same amino acid sequences of Tiragolumab, which was synthesized in-house based on the disclosed sequences in U.S. 2017/0088613 A1). As shown in FIGS. 7A-7C, 2A3 clone bound to a different epitope compared to Reference Ab 1 and Reference Ab 2.
On the technique in general: A flow cytometer gives signals particle by particle.

Test [6] addresses T1, recombinant human TIGIT extracellular …. Put plainly: ELISA on h-TIGIT ECD with VHH samples heated for 60 min at 25 to 70 °C. Here is the method: as §2, §3
For test [7], the target named is T4, human TIGIT expressed on cells (stably …). Put plainly: whole cell binding, flow cytometry.

Data on 14 molecules can be found in US20230060388A1 (SHANGHAI HENLIUS BIOTECH, published 2023).

Where only a bound is given, the exact number is not on record here.

B1: 1C12 VHH (VHH)
VHH: QVQLVESGGGLVQTGDSLRLSCAASSRIFSRYGMGWFRQAPGKEREFVAAISWNGASTTYTDSVKGRFTISRDSAENTTYLQINSLRPEDTAVYYCAADPWGAVKLGTAEYEYWGQGTQVTVSS
notes: VHH in E. coli supernatant
Consider B1, for which the “inhibition of PVR binding to h-TIGIT” value in test [1] is more than 90%.

B2: 2A3-LT-Fc VLPLL (Fc mutations L235V, F243L, R292P, Y300L, P396L) (Fc fusion)
chain: QVQLVESGGGVVQPGRSLRLSCAASGGSFSSYPMGWFRQAPGKERESVAAISSDLRFTYYADSVKGRFTISRDNSKNTLYLQMNSLRAEDTAVYYCAARTSGVGYYSRAQWYDYWGQGTLVTVSSEPKSCDKTHTCPPCPAPELVGGPSVFLLPPKPKDTLMISRTPEVTCVVVDVSHEDPEVKFNWYVDGVEVHNAKTKPPEEQYNSTLRVVSVLTVLHQDWLNGKEYKCKVSNKALPAPIEKTISKAKGQPREPQVYTLPPSREEMTKNQVSLTCLVKGFYPSDIAVEWESNGQPENNYKTTPLVLDSDGSFFLYSKLTVDKSRWQQGNVFSCSVMHEALHNHYTQKSLSLSPGK
notes: also called VLPLL mutant; VPVLL (as misprinted)
For B2, the binding result in test [2] and in test [3] was “binds” in each case.

B3: 3G6 bivalent VHH antibody (Fc fusion, not shown: small tags and cut ends)
chain: QVQLVESGGGLVQAGGSLSLSCAASGSIFGISVMGWYRQAPGEQRDLVATLTRAGLTTYGDSVKGRFSISRDSAKNTVYLQMNNLKPEDTAVYYCHANIMESAASTFGRYWGQGTQVTVSS
For the molecule B3, in test [4], the EC50 (read off the curve) (usually the concentration at which the effect is half-maximal) is approximately 0.8 nM.

B4: 3G6 VHH (VHH)
VHH: QVQLVESGGGLVQAGGSLSLSCAASGSIFGISVMGWYRQAPGEQRDLVATLTRAGLTTYGDSVKGRFSISRDSAKNTVYLQMNNLKPEDTAVYYCHANIMESAASTFGRYWGQGTQVTVSS
notes: VHH in E. coli supernatant
Regarding B4, the “inhibition of PVR binding to h-TIGIT” value in test [1] was more than 90%.

B5: 15A5 bivalent VHH antibody (Fc fusion, not shown: small tags and cut ends)
chain: QVQLVESGGGLVQAGGSLRLSCAASERTFSSFAMGWFRQAPGKEREVVAAIDPSGRYIYYKDSVKGRFTMSRDNAKSTVYLQMNSLKPDDTARYYCAARIRGEGYYTRSSFYHYWGQGTQVTVSS
Take B5: the “EC50 (read off the curve)” value in test [4] was approximately 0.06 nM.

B6: 15A5 VHH (VHH)
VHH: QVQLVESGGGLVQAGGSLRLSCAASERTFSSFAMGWFRQAPGKEREVVAAIDPSGRYIYYKDSVKGRFTMSRDNAKSTVYLQMNSLKPDDTARYYCAARIRGEGYYTRSSFYHYWGQGTQVTVSS
notes: VHH in E. coli supernatant
Take B6: the “inhibition of PVR binding to h-TIGIT” value in test [1] is more than 90%.

B7: 13H11 bivalent VHH antibody (Fc fusion, not shown: small tags and cut ends)
chain: QVQLVESGGGLVQAGGSLRLSCAASGLTFSMYAMGWFRQGPGKERESVAAISSDGRFTYYAASVKGRFTISKDNAKSAAFLQMNSLKPEDTAVYYCAARDSGSGYYSRAQWYDYWGQGTQVTVSS
With B7, the “EC50 (read off the curve)” value in test [4] is approximately 0.2 nM.

B8: 1A8 VHH (VHH)
VHH: QVQLVESGGGVVQPGRSLRLSCAASGPSFSSYPMGWFRQAPGKERESVAAISSRGRFTYYADSVKGRFTISRDNSKNTLYLQMNSLRAEDTAVYYCAARDSGSGYYSRAQWYDYWGQGTLVTVSS
On to B8, for which the binding result in test [5] and in test [6] was “binds” each time.

B9: 7F6 VHH (VHH)
VHH: QVQLVESGGGVVQPGRSLRLSCAASGPMFSSYPMGWFRQAPGKERESVAAISSDPRFTYYADSVKGRFTISRDNSKNTLYLQMNSLRAEDTAVYYCAARDSGSGYYSRAQWYDYWGQGTLVTVSS
In the case of B9, the binding result in test [5] and in test [6] was “binds” each time.

B10: 2A3 MI (hotspot modified 2A3) (VHH)
VHH: QVQLVESGGGVVQPGRSLRLSCAASGGSFSSYPMGWFRQAPGKERESVAAISSDIRFTYYADSVKGRFTISRDNSKNTLYLQMNSLRAEDTAVYYCAARDSGVGYYSRAQWYDYWGQGTLVTVSS
Turning to B10, in test [7], the binding result was “binds”.

B11: 2A3 ML_DE (hotspot modified 2A3) (VHH)
VHH: QVQLVESGGGVVQPGRSLRLSCAASGGSFSSYPMGWFRQAPGKERESVAAISSDLRFTYYADSVKGRFTISRDNSKNTLYLQMNSLRAEDTAVYYCAARESGVGYYSRAQWYDYWGQGTLVTVSS
As for B11, the binding result in test [7] is “binds”.

B12: 2A3 ML (hotspot modified 2A3) (VHH)
VHH: QVQLVESGGGVVQPGRSLRLSCAASGGSFSSYPMGWFRQAPGKERESVAAISSDLRFTYYADSVKGRFTISRDNSKNTLYLQMNSLRAEDTAVYYCAARDSGVGYYSRAQWYDYWGQGTLVTVSS
In the case of B12, the binding result in test [7] is recorded as “binds”.

B13: 6F12 VHH (VHH)
VHH: QVQLVESGGGVVQPGRSLRLSCAASGPSFTSYPMGWFRQAPGKERESVAAISSDGRFKYYADSVKGRFTISRDNSKNTLYLQMNSLRAEDTAVYYCAAEDSGSGYYSRAQWYDYWGQGTLVTVSS
Consider B13, for which the binding result in test [5] and in test [6] was “binds” throughout.

B14: 3F10 VHH (VHH)
VHH: QVQLVESGGGLVQAGGSLRLSCASSEHTFSNFPMGWFRQAPGKERNVVAAIDSSGRLTYYADSVKGRFTISKDNAKSTVYLQMNSLKSEDTARYYCAARTGGVGYYSRSSFYNYWGQGTLVTVSS
notes: VHH in E. coli supernatant
As for B14, in test [1], the “inhibition of PVR binding to h-TIGIT” value was more than 90%.
